In PMC9091222 (2022) one finds EC50 data, which are given here for one molecule.

This assay deals with unprocessed hMPV PreF trimer (wild-type hMPV F ectodomain trimer, strain B2, C-terminal GCN4 trimerization … (human metapneumovirus, strain B2)). Put plainly: ELISA. (In general: In an ELISA, binding on a coated surface is turned into a signal by an enzyme label.)

B1: M4B06 IgG (antibody, V domains shown)
VH: EVQLLESGGGFVQPGGSLRLSCVVTGFTFSNYAMCWVRQAPGKGPEWVSGIGGSVGTTYYADSVKGRFTISRDNSKNTLYLQMSGLRAEDTARYYCAKVPSFFVFEDGFDMWGQGTVVTVSS
VL: QSVLTQPPSASGNPGQRVTISCYGSGSNIGNNYVHWFRQLPGTAPRLLIYNTDILVPGVPDRFSGSESGTSASLAISGLQSGDEADYFCAAWDDTLNGYVFGPGTTVTVL
A word on the EC50: it is the concentration at which the effect is half-maximal. A higher EC50 goes with weaker potency. For the molecule B1, the midpoint of the response, the EC50, lay at 4.4 ng/mL.
